Reference: patent US20240033341A1 (CALIFORNIA INSTITUTE OF TECHNOLOGY, published 2024)
Positions count from the first letter of the chain named.

B1: 3BNC60 iGL IgG (antibody, V domains shown)
VH: not shown
VL: DIQMTQSPSSLSASVGDRVTITCQASQDISNYLNWYQQKPGKAPKLLIYDASNLETGVPSRFSGSGSGTDFTFTISSLQPEDIATYYCQQYEFIGPGTKVDIKR
B2: VRC01 iGL IgG (antibody, V domains shown)
VH: not shown
VL: EIVLTQSPATLSLSPGERATLSCRASQSVSSYLAWYQQKPGQAPRLLIYDASNRATGIPARFSGSGSGTDFTLTISSLEPEDFAVYYCQQYEFFGQGTKLEIKR
B3: IOMA IgG (antibody, V domains shown)
VH: EVQLVESGAQVKKPGASVTVSCTASGYKFTGYHMHWVRQAPGRGLEWMGWINPFRGAVKYPQNFRGRVSMTRDTSMEIFYMELSRLTSDDTAVYYCAREMFDSSADWSPWRGMVAWGQGTLVTVSS
VL: QSALTQPASVSGSPGQSITISCAGSSRDVGGFDLVSWYQQHPGKAPKLIIYEVNKRPSGISSRFSASKSGNTASLTISGLQEEDEAHYYCYSYADGVAFGGGTKLTVLG
notes: Mature CD4bs bNAb; also called mature IOMA
B4: IO-010 (antibody, V domains shown)
VH: QVQLVQSGAEVKKPGASVTVSCKASGYTFTGYHLHWVRQAPGQGLEWMGWINPFRGAIGYAQKFRGRVTMTRDTSIITAYMELRGLRSDDTAVYFCAREMFDSDDEWSPWRGMVAWGQGTLVTVSS
VL: QSALTQPASVSGSPGQSITISCTGTSSDIGGYNLVSWYQQHPGKAPKLMIYDVNKRPSGVSNRFSGSKSGNTASLTISGFQAEDEADYYCCSYADTLVFGGGTKLTVL
notes: also called 10-010
B5: IO-050 (antibody, V domains shown)
VH: QVQLVQSGAEVKKPGASVRVSCKASGYTFTDYEIHWVRQAPGQGLEWMGWINPFRGAVKYRQKFQGRVTMTRDPSITTAYMELSRLRSDDTARYYCAREMFDSDDEWSPWRGMVAWGQGTLVTVSS
VL: B4 VL with I29V, G31S, D52E, N54S, K55R, V98I
B6: IO-017 (antibody, V domains shown)
VH: B4 VH with I77N, E106D
VL: B4 VL with N33D
notes: also called 10-017
B7: IO-008 (antibody, V domains shown)
VH: QVQLVQSGAEVKKPGASVTVSCKASGYTFTGYELHWVRQAPGQGLEWMGWINPYRGAVKYAQKFQGRVTMTRDTSISTAYMVLNGLRSDDTAVYYCARDMFDSSDEWSPWRGMVAWGQGTPVTVSS
VL: B4 VL with I29V, G31S, N33D, D52E, N54S, F80L, T96S, L105V, V107G
B8: IO-003 (antibody, V domains shown)
VH: QVQLVQSGAEVKKPGASVTVSCKASGYTFTDYFIHWVRQAPGQGLEWMGWINPFRGAVDYAQKFRGRVTMTRDTSITTAYMELSRLRSDDTAVYYCARAMFDSSDEWSPWHGLVAWGQGTLVTVSS
VL: QSALTQPASVSGSPGQSITISCTGTSRDIGSFNLVSWYQQHPGKAPKLMIYDVSKRPSGVSNRFSGSKSDNMASLIISGFQAEDEAEYFCCSFAGSLAFGGGTKLTVL

target: T1, IGT2 gp120 (HIV-1 (clade C strain 426c, engineered)); assay: ELISA with gp120 (FIG. 1E, FIG. 6J)

Binder | binding result
B1 | binds

target: T2, IGT2 SOSIP (HIV-1 (clade C strain 426c, engineered)); assay: SPR with SOSIP (FIG. 6I), ELISA (FIG. 1E)
T2 construct: also called SOSIP version of IGT2

Binder | binding result
B2 | binds
B1 | binds

target: T1, IGT2 gp120; assay: ELISA, gp120 coated on the plate, IgG titrated

Binder | binding result
B2 | binds

target: 426c.TM4 gp120 (HIV-1 (clade C strain 426c, engineered)); assay: ELISA, gp120 coated on the plate, IgG titrated

Binder | binding result
B1 | binds

target: T3, CE0217 (Autologous); assay: Env ELISA, IgG dilution series on SOSIP trimer, area under the binding curve
T3 construct: also called CE0217 SOSIP

Binder | binding result
B3 | binds
B4 | binds
B5 | binds
B6 | binds

target: BG505; assay: as above

Binder | binding result
B3 | binds
B4 | binds
B7 | binds
B5 | no binding
B8 | binds

target: T4, CNE20; assay: as above
T4 construct: also called CNE20 SOSIP

Binder | binding result
B3 | binds
B4 | binds
B7 | binds
B5 | binds
B6 | no binding
B8 | binds

target: CNE20 N276A; assay: as above

Binder | binding result
B3 | binds
B4 | binds
B7 | binds
B5 | binds
B6 | binds
B8 | binds
